Measurements: the nanobody polyreactivity screen of Harvey et al. (2022)

Assay: yeast display, Sf9 membrane polyspecificity reagent, FACS + sequencing; frameworks hold sequencing errors
Outline: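 In a synthetic yeast display library (Saccharomyces cerevisiae BJ5465), nanobody expression was induced with galactose for 36–48 hours. FACS gates were set low and high (top ~1%) using anti-HA fluorescence for expression and streptavidin fluorescence for binding of the Sf9 membrane reagent. Each polyreactivity label is drawn from the gate of origin.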

| Sequence | polyreactivity (PSR sort gate) |
| --- | --- |
| QVQLVESGGGLVQAGGSLRLSCAASGSTFGSNAMGWYRQAPGKERELVAAIRGIVGSTYYADSVKGRFTISRDNAKNTVYLQMNSLKPEDTAVYYCNKAEVSTYYQTRSTYGGYDYWGQGTQVTVSS | low polyreactivity |
| QVQLVESGGGLVQAGGSLRLSCAASGRTFRYKAMGWYRQAPGKERELVAAITYSGGITYYADSVKGRFTISRDNAKNTVYLQMNSLKPEDTAVYYCAADDPYRTTYEYDYWGQGTQVTVSS | low polyreactivity |
| QVQLVESGGGLVKAGGSLRLSSAASGSTFERYAMGWYRQAPGNERELVAAINWSGGGTYYADSVKGRFTISRDTAKNTVYLQMNSLKPEDTAVYYCAADSGTVVFSLWWYEYYYWGQGNQVTVSS | low polyreactivity |
| QVQLVESGGRLLQAGGSLRLSCAASGRTFRRYAMGWYRPAPGKERELLAAISASGGSTYYADSVKGRFTISRDNAKNTVYLQMNSLKPEDTAVYYCAADWYSYLHGTKYGYWGQGTQVTVSS | high polyreactivity |
| QVQLVESGGGLVQAGGSLRLSCAASGRTLGWYAMGWYRQAPGKERELVATISITGGSTYYADSVKGRFTISRDNAKNTVYLQMNSLKPEDTAVYYCAARHGSRRRYYYWGQGTQVTVSS | high polyreactivity |
| QVQLVESGGGLDQAGGSLRLSCAASGSIFYFYTMGWYRQAPGKEREFVAAINGIGGSTYYADSVKGRFTISRDNAKNTVYLQMNRLKPEDTAVYYCAADAPWFKRNARKYNYWGQGTQVTVSS | low polyreactivity |
| QGQLVESGGGLVQAGGSLRLSCAASGRIFYAYAMGWYRQAPGKERELGAAITSSGGRTYYADSVKGRFTISRDTAKNTVYLQLNSLKPEDTAVYYCAAYDYWGQGTQVTVSS | low polyreactivity |
| QVQLVESGGGLVQAGGSLRLSCAASGMTFTSNVLGWYRQAHGKERELVAAISSGGSTYDADSVKGRFTMSRDNAKNTVYLQMNSLKPEDTAVYYCNSKLWGQYDYWGQGTQVTVSS | low polyreactivity |
| QVQLVESGGGLVQAGGSLRLSCAASGGTFSRYVMGWYRQAPGKERELVAAITRSGSTNYADSVKGRFTISRDNAKNTVYLQMNSLKPEDTAVYYCATDKRGRIGGTFDYWGQGTQVTVSS | low polyreactivity |
| QVQLVESGGGLVQAGGSLRLSSAASARIFGYYVMGWYRQAPGKERELVARIRSGGNTYYADSVKGRFTISRDNAKNTVYLQMNSLKPEDTAVYSCNADPRTGWYIYDYWGQGTQVTVSS | high polyreactivity |
| QVQLVESGGGLVQAGGSLRLSCAASGIIFINYAMGWYRQAPGKERELVAAINSGGSTKYADSEKGRFTISRDNAKNTVYLLMNSLKPEDTAVYDCAAVPAGRYYWWLYYYWGQGTQVTVSS | high polyreactivity |
| QVQLVESGGGLVQAGGSHRLSCSASGITFYYYAMGWYRQAPGKERELVAAISRSGGRTYYADSVKGRFTISRDNAKNTVYLQMNSLKPEDTAVYYCAAVRYQGGDSSIEYDYWGQGTQVTVSW | high polyreactivity |
| QVQLVESGGGLVQAGGSLRLSCAASGSTFSHNTMGWYRQAPGKERELVAAISSRGSSTYYADSVKGRFTISRDNAKNTVYLQMNSLKPEDTAVYYCAARYLRGTWAGLGYDYWGQGTQVTVSS | low polyreactivity |
| QVQLVESGGGLVQAGGSLRLSCAASGSIFCVYAMGWYRQAPGKERELVAAISQSGGRTYYADSVKGRFTISRDNAKNTVYLQMNSLKPEDTAVYYCAAVVFNVYRRYWGQGTQVTVSS | high polyreactivity |
| QVQLVESGGGLVQAGGSLRLSCAASGRIFRYNAMVWYRQAPGKERELVAAITWSGTSTYYADSLKGRFTLSRDNAKNTVYLHMNSLKPEDTAVYYCNADRVDRELFTFDYWGQGTQVTVSS | high polyreactivity |
| QVQLVESGGGLVQAGGSLRLSCAASGRIFGLYARGWSRQAPGKERELVAAYADSVKGRFTISRENAKNTVYLQMNSLKPEDTAVYYCAKGPLYAGYSIDLRDFNYWGQGTQVTVSS | low polyreactivity |
| QVQLVESGGGLDQAGGSLRLSCAASGSTFQPYAMGRYRQAPGKEREFVATISGSAGSTYYADSVKGRFKISRDNANYTVYLQMNSLKPEDTAVYYCNADSGWFGYDYWGQGNQVTVSS | low polyreactivity |
| QVQLVESGGGLVQAGGSLRLSCAASGSTFGLYAMGRYRQAPGKERELVAAIRYSDGSTYYADSVKGRFTISRDNAKNTVYLQMNSLKPEDTAVYYCAAEIGTYFHVPTEYDYWGQGTQVTVSS | low polyreactivity |
| QVQLVESGGGLVQAGGSLRLSCAASGSIFTINAMGWYRQAPGKVRELVAAISWSGAPTYYADSVKGRFTISRDNAKNTVYLQMNSLTPEDTAVYYCATGYNYLDRNTGYVHRFDYWGQGTQVTVSS | low polyreactivity |
| QVQLVESGGGLVQAGGSLRLSCAASGLIFVANAMGWYRQAPGKERELVAAISRSGGITYYADSVKGRFTISRDNAKNTVYLQMNSLKPQDTAVYYCAKTLPSNGHYDYWGQGTQVTVSS | low polyreactivity |
| QVQLVESGGGLVQARGSLRLSSAATGLIILAYAMGWYRQAPGKERELVAAISTSGSTYYADSVKGRFTISRDNAKNTVYLQMNSLKPEDTAVYYCAAYYRWSVTYYDWGQGTQGTVSS | high polyreactivity |
| QVQLVESGGGLVQAGGSLRLSCAASGYIFDYYAMGWYRQAPWKERELVAAISSSGGTTYYADSVKGRFTISRDNAKNTVYLQMNSLKPEDTAVYYCAARKSRWQRGYYYWGQGTQVTVSS | high polyreactivity |

| Sequence | polyreactivity (PSR sort gate) |
| --- | --- |
| QVRLVESGGGLVQAGGSLRLSCAASGFIFRNNAMGWYRQAPGKERELVAVISFSGGSTYYADSVKGRFTISRDNAKNTVSLQMNSLKPEDTAVYYCTAKGWYYTRRSDYWGQGTQVTVSS | low polyreactivity |
| QVQLVESGGGLVQEGGSLRLICAASGLTFFPYAMGWYRQAPGKDRELVAAITTSDGTTYYADSVKGRFTISRDNAKNTVYLQMNSLKPEDTAVYYCAAVYSPRSVWWYDYWGQGTQVTVSS | low polyreactivity |
| QVQLQESGGGLVQAGGSLRLSCAASGNIFSSGVMGWYRQAPGKERELVATINVGANTNYADSVKGRFTISRDNAKNTVYLQMNRLKPEDTAVYYCAVDKGDDGSFYLWGQGTQVTVSS | high polyreactivity |
| QVQLVESGGGLVQAGGSLRLSCAASGRIFRSNTMGWYRQAPGKERELVAAITRRGGSTYYADSVKGRFTISRDNAKNTVYLQLNSLKPEDTAVYYCAAVKSYYSEYGYWGQGTQGTVSS | high polyreactivity |
| QVQLVESRGGLVQAGGSLRLSCAASGRTFLGYAMGWYRQAPGKERELVAAISYSGSSTYYADSVKGRFTISRDNAKNTVYLQMNSLKPEDTAVYYCAAQFYFLFDYWGQGTQVTVSS | low polyreactivity |
| QVQLVESGGGLVQAGCSLRLSCAASGATPQNAMGWYRQAPGKERELVAAISKRGGSTYYADSVKGRFTISRDNAKNTVYLQMISLKPEDTAVYYCAKSGRNYYDDDYWGQGTQVTVSS | high polyreactivity |
| QVQLVESGGGLVQAGGSLRLSSAASGSIFLFYAMGWYRQAPGKERELVATITTGAGSTYYADSVKGRFTISRDNAKNTVFLQMNSLKPEDTAVYYCAATVSYDFGYVAVSYDYWGQGTQVTVSS | low polyreactivity |
| QVQLVESGGGLVQAGGRLRLSCAASGFTFNWYDMGWYRQAPGKERELVATISTGGGTNYADSVKGRFTITRYNAKNTVYLQMNSLKPEDSAVYYCAADGSAGYLWGYDFEGVYWGQGTQVTVSS | high polyreactivity |
| QVQLVESGEGLVQAGGSLRLSCAASGRTFYANAMGWYRQAPGKERELVASITTSGGTYYADSVKGRFTISRDNAKNTVYLQMNSLKPEDTAVYYCAADVYRSIGYDYWGQGTQVTVSS | low polyreactivity |
| QVQLVESGGGLVQAGGSLRLSCAASGFTFSYYAMGWSRQAPGKERELVAAITTSGGRTYYADSVKGRFTISRDNAKNTFYLQMNSLKPEDTAVYYCAATYPRYYSGEFDYWGQGTQVTVSS | high polyreactivity |
| QVQVVESGGGLVQEVGSLRLSCDASGRSFHHNVMGWYRQAPGKERELVAAISQSGCSTYYADSVKGRFTISRDNAKNTLYLLINSLKPEDSAVYYCNAGAAGRRYNYWGQGTQVTVSS | low polyreactivity |
| QVQLVESGGGLVQAGGSLRLSCAASGRIFYPNDLGWYRQAPGKERELVAAITRDGSTNYADSVKGRFTISRDNAKNTVYLQMNSLKPEDTAVYYCAADISDWYIIRRMNYWGQGTQVTVSS | low polyreactivity |
| QVQLVESGGGLVQPGGTLRLTCAGSGSILTGNAMRWYRQAPGKERELVAAITSGGSTYYADSVKGRFTISRDNAKNTVYLQMNSLNQADSAGYYCAASRWRPLERGTTWLHDYWGQGTQVTVSS | low polyreactivity |
| QVQLVESGGGLVQAGGSLRLSCAASGRIFTQYAMGWYRPAPGKERELVAAISSSGVRTYYADSVKGRFTISRDNAKNNVYLQMNSLKPEDTAVYYCAVRRGGAYYQFGYWGQGTQVTVSS | high polyreactivity |
| QVQLVESGGGLVQAGGSLRLSCAASGFIVGHYAMGWYRQAPGQEREFVAAITSGGTTYYADSVKGRFTISRDNAKNTVYLQMNSLKPEDTAVYYCNADDAFRYYWLGLYDYWGQGTQVTVSS | low polyreactivity |
| QDQLVESGGGLVQAGGTLRLSCAASGRTFYLYAMAWYRQAPGKERELVAAISSGASTYYADSVKGSFTISRDIAKNTVYLQMNSLKPDDTAVYYCAAEFCPQWSGYEYWGQGTLVTVSS | high polyreactivity |
| QVQLVESGGGLVQAGGSLRLSCAASGSTFRDNAMGWYRQAPGTERELVAAISRRGGNTYYADSVKGRFTISRDNAKNTVYLQMNSLKPEDTAVYYCASEVKTSYSYTHDGYWGQGTKVTVSS | high polyreactivity |
| QGQLVESGGGLVQAGGSLRLSCAASGFTFGHYAMGWYRQAPGKERELVAAIRWSGGSTYYADSVKGRFTISRDNAKNTVYLQMNSLKPEDTAVYYCAARGFDGYEYDYWGQGTQVTVSS | low polyreactivity |
| QVQLVESGGGLVQAGGSLRLSCAASGSTFNSYVMGWYRQAPGKERELVAAITSSGSTYYADSVKGRFTISRDNAKNTVYLQMNSLKPEDTAVYYCNAQDAWEWQGVWVGARDDYDYWGQGTQVTVSS | low polyreactivity |
| QVQLVESGGGLVQAGGSLRLTCAASGRIFNTYAMGWYRQAPGKERELVAAITRSAGRTYYADSVKGRFTISRDNAKNTVYLQMNSLKPEDTAVYYCNAEGSSVLTGYCGYPPYWDTYDYWGQGTQVTLSS | low polyreactivity |
| QVQLVESGGGLVQAGGSLRLSCAASGITFCYNTMGWYRQAPGKERELVAAISGSGGRTYYADSVKGRFTISRDNAKNTVYLQMNSLKPEDTAVYDCAARWQIWSSLYDYWGQGTQVTVSS | high polyreactivity |
